Assay [1] concerns the target T1, hCD33 (recombinant, construct not stated) (human, UniProt P20138 18-259, limits assumed).
T1 construct: also called CD33 (Ligand 1)
As to the kind of experiment: switchSENSE, hCD33 and hCD123 co-immobilised 2:1; panel headed CD33, column KD1; KD2 printed N.A. The protocol: (§1) The designed ankyrin repeat proteins: DARPin® protein #20, DARPin® protein #21, DARPin® protein #22, DARPin® protein #27, DARPin® protein #40 and DARPin® protein #41 were tested in a concentration of 0.16 and 64 nM (in a buffer PE140 containing 10 mM Na2HPO4/NaH2PO4, 140 mM NaCl, 0.05% Tween20, 50 μM EDTA, 50 μM EGTA) for binding against two ligands hCD33 and hCD123, which both were immobilized simultaneously to DNA nanolevers, on the surface, at a pre-defined ratio (2:1, CD33:CD123) and 10% density (100:50) on an ADP-48-1-0 chip, where 100% density 1000 receptors/μm2 (preincubated R1-B48-CD123 and G1-A48-CD33 (100 nM) diluted in cNL-48 (dark)). Briefly the following steps were performed: [0724] Conjugation. Amine coupling of the two ligands (CD33 and CD123) to the DNA nanolever (A48, B48, respectively) and purification of the conjugates using the proFIRE® solution (Dynamic Biosensors GmbH) at 25° C. [0725] Evaluation of all the combined affinity and avidity of all different proteins to both ligands attached on the surface of an ADP chip using a DRX+ instrument (dynamic BIOSENSORS). [0726] Statistical analysis (repeatability from 2 to 5 times) including regeneration of the chip surface every concentration analyzed and long dissociation times and data were fitted using a bi-exponential global fit.

The target in assay [2] is T1, hCD33 (recombinant, construct not …). As to the kind of experiment: switchSENSE, CD33 and CD123 on one chip; monophasic; CD33-only control, monophasic.
Assay [3] concerns the target T2, hCD123 (recombinant, construct not stated) (human, UniProt P26951 19-305, limits assumed).
T2 construct: also called CD123 (Ligand 2)
T2 sequence (looked up): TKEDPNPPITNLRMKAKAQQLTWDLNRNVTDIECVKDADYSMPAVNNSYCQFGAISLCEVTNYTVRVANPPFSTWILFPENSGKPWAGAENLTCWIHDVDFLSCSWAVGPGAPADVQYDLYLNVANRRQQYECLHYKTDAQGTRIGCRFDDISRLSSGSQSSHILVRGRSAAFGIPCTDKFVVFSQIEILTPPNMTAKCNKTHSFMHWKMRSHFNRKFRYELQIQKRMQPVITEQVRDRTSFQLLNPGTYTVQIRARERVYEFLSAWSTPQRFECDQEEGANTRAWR
Nature of the assay: switchSENSE, hCD33 and hCD123 co-immobilised 2:1; panel headed CD123. The method, then: as §1

The target in assay [4] is T1, hCD33 (recombinant, construct not …). Nature of the assay: switchSENSE, hCD33 and hCD123 co-immobilised 2:1; panel headed CD33. The method, then: as §1
Assay [5] concerns the target T2, hCD123 (recombinant, construct not …). Nature of the assay: switchSENSE, CD33 and CD123 on one chip; monophasic; CD123-only control, monophasic.
The target is the same in assay [6]. Nature of the assay: switchSENSE, hCD33 and hCD123 co-immobilised 2:1; panel headed CD123, column KD1; KD2 printed N.A. The method, then: as §1
Assay [7] addresses T3, biotinylated extracellular domain of human CD123 (SEQ ID NO: 88), Fc and Avi tagged (human, UniProt P26951 19-303, biotinylated with BirA-GST (Avi tag)).
T3 construct: also called hCD123
T3 sequence: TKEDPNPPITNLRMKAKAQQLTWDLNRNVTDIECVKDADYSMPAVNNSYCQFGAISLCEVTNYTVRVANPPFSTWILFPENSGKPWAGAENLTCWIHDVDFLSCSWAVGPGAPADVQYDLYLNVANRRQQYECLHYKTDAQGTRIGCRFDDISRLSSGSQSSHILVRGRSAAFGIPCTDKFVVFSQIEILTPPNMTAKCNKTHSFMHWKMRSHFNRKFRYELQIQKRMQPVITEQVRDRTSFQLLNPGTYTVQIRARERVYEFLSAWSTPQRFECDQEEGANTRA
As to the kind of experiment: ribosome display selection, crude extract HTRF.

Assay [8] has as its target T1, hCD33 (recombinant, construct not …). Nature of the assay: switchSENSE, CD33 and CD123 on one chip. The protocol: as §1
In assay [9] the target is T2, hCD123 (recombinant, construct not …). As to the kind of experiment: switchSENSE, CD33 and CD123 on one chip. The method, then:
as §1

Assay [10] deals with T4, hCD33 and hCD123 immobilized simultaneously on one switchSENSE chip (ratio 2:1, CD33:CD123) (human, UniProt P20138 18-259; P26951 19-305, limits assumed).
T4 construct: Not a complex: two separate ligands on one surface; used for avidity values and for off-rates; also called both ligands; both targets attached to the surface of the chip
Nature of the assay: switchSENSE, CD33 and CD123 on one chip; fast phase (affinity); fast phase (affinity). The protocol: as §1

Assay [11] addresses T2, hCD123 (recombinant, construct not …). Nature of the assay: switchSENSE, hCD33 and hCD123 co-immobilised 2:1; panel headed CD123, column KD1 (affinity). The method, then: as §1
Assay [12] addresses T1, hCD33 (recombinant, construct not …). As to the kind of experiment: switchSENSE, hCD33 and hCD123 co-immobilised 2:1; panel headed CD33, column KD1 (affinity). The protocol: as §1
For assay [13] the target is unchanged. As to the kind of experiment: switchSENSE, CD33 and CD123 on one chip; kon to CD33. The method, then:
as §1

Assay [14] concerns the target T4, hCD33 and hCD123 immobilized …. Nature of the assay: switchSENSE, CD33 and CD123 on one chip; slow phase (avidity); slow phase (avidity).
For assay [15], the target named is T1, hCD33 (recombinant, construct not …). As to the kind of experiment: switchSENSE; KD,1 (affinity); KD,1 (affinity), CD33. The method, then:
as §1

Assay [16] has as its target T4, hCD33 and hCD123 immobilized …. Nature of the assay: switchSENSE, CD33 and CD123 on one chip; fast phase (affinity). The method, then:
as §1

The target is the same in assay [17]. Nature of the assay: switchSENSE, hCD33 and hCD123 co-immobilised 2:1; panel headed CD33, column KD2 (avidity, simultaneous binding of CD33 and CD123 per paragraph 694). The protocol:
as §1

For assay [18] the target is unchanged. As to the kind of experiment: switchSENSE, hCD33 and hCD123 co-immobilised 2:1; panel headed CD123, column KD2 (avidity, simultaneous binding of CD33 and CD123 per paragraph 694). The protocol:
as §1

The target is the same in assay [19]. Nature of the assay: switchSENSE, CD33 and CD123 on one chip; slow phase (avidity). The method, then:
as §1

Assay [20] has as its target T2, hCD123 (recombinant, construct not …). Nature of the assay: switchSENSE, CD33 and CD123 on one chip; kon to CD123. The protocol:
as §1

The target is the same in assay [21]. Nature of the assay: switchSENSE; KD,1 (affinity); KD,1 (affinity), CD123. The protocol: as §1

Values joined by “and” are separate entries in the source; they are usually repeats but may differ in a detail not shown here. Equal entries are not always repeated.

The koff is the first-order rate constant of dissociation. Broadly, the kon is a measure of how fast the partners come together.

T1 sequence (P20138 18-259 limits assumed): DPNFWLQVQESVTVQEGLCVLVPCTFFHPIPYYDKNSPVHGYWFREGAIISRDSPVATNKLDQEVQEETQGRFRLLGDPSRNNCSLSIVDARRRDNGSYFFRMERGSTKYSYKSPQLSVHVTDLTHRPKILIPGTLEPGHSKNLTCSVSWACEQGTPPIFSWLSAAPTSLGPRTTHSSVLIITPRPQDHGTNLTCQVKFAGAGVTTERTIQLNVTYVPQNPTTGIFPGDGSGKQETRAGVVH
T4 sequence (P20138 18-259 limits assumed, one chain of several): as the sequence (P20138 18-259 limits assumed) above

B1: DARPin® protein #40 (designed binder)
chain: DLGKKLLEAARAGQDDEVRELLKAGADVNAKDKDGYTPLHLAAREGHLEIVEVLLKAGADVNAKDKDGYTPLHLAAREGHLEIVEVLLKAGADVNAQDKSGKTPADLAADAGHEDIAEVLQKAAGSPTPTPTTPTPTPTTPTPTPTGSDLGVKLLLAASRGQLDEVRILLKAGADVNAKDIDEGYTPLHIAAYYGHLEIVEVLLKAGADVNAKDRYGKTPLHLAAISGHLEIVEVLLKAGADVNAQDDKGDTPADLAADYGHQDIAEVLQKAAGSPTPTPTTPTPTPTTPTPTPTGSDLGQKLLEAAWAGQDDEVRELLKAGADVNAKNSRGWTPLHTAAQTGHLEIFEVLLKAGADVNAKDDKGVTPLHLAAALGHLEIVEVLLKAGADVNAQDSWGTTPADLAAKYGHEDIAEVLQKAA
notes: also called Ni2C-αCD33-αCD3
For the molecule B1, in assay [1], the Kd stood at 7.1 nM. Besides, the off-rate (koff) in assay [2] turned out to be 0.01 s⁻¹. Also, in [3], the binding result is “no binding”.

B2: DARPin® protein #41 (designed binder)
chain: DLGKKLLEAALEGQLDEVRELLKAGADVNAKDQEGYTPLHLAAALGHLEIVEVLLKAGADVNAKDSIGRTPLHLAAYKGHLEIVEVLLKAGADVNAQDLLGETPADLAAEQGHQDIAEVLQKAAGSPTPTPTTPTPTPTTPTPTPTGSDLGKKLLEAARAGQDDEVRELLKAGADVNAKDKDGYTPLHLAAREGHLEIVEVLLKAGADVNAKDKDGYTPLHLAAREGHLEIVEVLLKAGADVNAQDKSGKTPADLAADAGHEDIAEVLQKAAGSPTPTPTTPTPTPTTPTPTPTGSDLGQKLLEAAWAGQDDEVRELLKAGADVNAKNSRGWTPLHTAAQTGHLEIFEVLLKAGADVNAKDDKGVTPLHLAAALGHLEIVEVLLKAGADVNAQDSWGTTPADLAAKYGHEDIAEVLQKAA
notes: also called αCD123-Ni2C-αCD3
For the molecule B2, the binding result in [4] was “no binding”. Further, the koff in assay [5] came to 0.06 s⁻¹. In addition, in assay [6], the Kd was 4.2 nM.

B3: DARPin® protein #35 (designed binder)
chain: DLGKKLLEAALEGQDDEVRELLKAGADVNAKDQEGYTPLHLAAALGHLEIVEVLLKAGADVNAKDSIGRTPLHLAAYKGHLEIVEVLLKAGADVNAQDLLGETPADLAAEQGHEDIAEVLQKAA
notes: CD123-specific domain; screened as crude extract
On to B3, for which the binding result in assay [7] is “binds”.

B4: DARPin® protein #20 (designed binder)
chain: DLGKKLLEAARAGQDDEVRILMANGADVNALDWLGHTPLHLAAYEGHLEIVEVLLKNGADVNAIDDNNGFTPLHLAAIDGHLEIVEVLLKNGADVNAQDKFGKTAFDISIDNGNEDLAEILQKAAGSPTPTPTTPTPTPTTPTPTPTGSDLGDKLLLAATSGQDDEVRILLAAGADVNAKDYDGDTPLHLAADEGHLEIVEVLLKAGADVNAKDYSGSTPLHAAAAYGHLEIVEVLLKAGADVNAQDVFGYTPADLAAYVGHEDIAEVLQKAAGSPTPTPTTPTPTPTTPTPTPTGSDLGQKLLEAAWAGQDDEVRILLAAGADVNAKNSRGWTPLHTAAQTGHLEIFEVLLKAGADVNAKNDKRVTPLHLAAALGHLEIVEVLLKAGADVNARDSWGTTPADLAAKYGHGDIAEVLQKLA
notes: CD123-CD33-CD3; also called αCD123-αCD33-αCD3_1
For B4, the kon is about 1e+06 M⁻¹ s⁻¹ in assay [8], about 1e+07 M⁻¹ s⁻¹ in assay [9], 1.3e+06 M⁻¹ s⁻¹ in assay [13] and 7e+06 M⁻¹ s⁻¹ in assay [20]. Moreover, the off-rate (koff) is 0.03 s⁻¹ in assay [10]; 0.0015 s⁻¹ in [14]; ~0.01 s⁻¹ and 0.02 s⁻¹ in [16]; ~0.001 s⁻¹ and 0.001 s⁻¹ in [19]. Also, the Kd in [11] is 4.9 nM; in assay [12] it was 18 nM; in assay [15], about 17.6 nM; in [17], 0.7 nM; in assay [18] it was 0.29 nM; in [21], about 4.9 nM.

These data come from patent US20240254229A1 (Molecular Partners, published 2024).
